In one series the test system is biotinyl-Leu-oxazolone. Put plainly: self-aminoacylation, catalytic enhancement (BLO) (fold over background); higher = more active; k-Seq, kA / k0A0; sequences stand for … in GGGAAUGGAUCCACAUCUACGAAUUC…UUCACUGCAGACUUGACGAAGCUG
The essentials: (§1)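 The uncatalyzed rate is the low-activity peak of a bimodal Gaussian fit, and catalytic enhancement is median kA divided by it. The kA values came from pseudo-first-order fits, with 1000 bootstraps, of per-sequence fraction reacted measured by streptavidin capture, triplicate qPCR and Illumina sequencing. Mutagenized RNA pools with a 21-nt variable region (0.43 μM) were reacted with each biotinyl-aminoacyl-oxazolone at 2–1250 μM in 50 μL HEPES/NaCl/KCl/MgCl2/CaCl2 buffer with 5% acetonitrile, pH 6.9–7.0, for 90 minutes at room temperature.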

A further series concerns biotinyl-Trp-oxazolone. Put plainly: self-aminoacylation, catalytic enhancement (BWO) (fold over background); higher = more active; k-Seq, kA / k0A0; sequences stand for … in GGGAAUGGAUCCACAUCUACGAAUUC…UUCACUGCAGACUUGACGAAGCUG
Summed up: as §1

The subject of the next series is biotinyl-Phe-oxazolone. Put plainly: self-aminoacylation, catalytic enhancement (BFO) (fold over background); higher = more active; k-Seq, kA / k0A0; sequences stand for … in GGGAAUGGAUCCACAUCUACGAAUUC…UUCACUGCAGACUUGACGAAGCUG
Summed up: as §1

The next series relates to biotinyl-Met-oxazolone. Put plainly: self-aminoacylation, catalytic enhancement (BMO) (fold over background); higher = more active; k-Seq, kA / k0A0; sequences stand for … in GGGAAUGGAUCCACAUCUACGAAUUC…UUCACUGCAGACUUGACGAAGCUG
Summed up:
as §1

In a further series the test system is biotinyl-Val-oxazolone. Put plainly: self-aminoacylation, catalytic enhancement (BVO) (fold over background); higher = more active; k-Seq, kA / k0A0; sequences stand for … in GGGAAUGGAUCCACAUCUACGAAUUC…UUCACUGCAGACUUGACGAAGCUG
The essentials: as §1

The test system of a further series is biotinyl-Ile-oxazolone. As to the kind of experiment: self-aminoacylation, catalytic enhancement (BIO) (fold over background); higher = more active; k-Seq, kA / k0A0; sequences stand for … in GGGAAUGGAUCCACAUCUACGAAUUC…UUCACUGCAGACUUGACGAAGCUG
Summed up:
as §1

Fewer inactive variants are shown than the library holds.

For the sequence “AUUGCCCUUGUCAUCGAGUGA [Fam2.1 aminoacylation ribozyme variant]”, the self-aminoacylation worked out at 7.02 in the series with biotinyl-Leu-oxazolone; 8.3 in the series on biotinyl-Trp-oxazolone; 42.1 in the series with biotinyl-Phe-oxazolone; 7.03 in the series on biotinyl-Met-oxazolone; 3.88 in the series with biotinyl-Val-oxazolone; 3.38 with biotinyl-Ile-oxazolone.

On to “UUACUUUAAACAAUCGGUCUG [Fam1A.1 aminoacylation ribozyme variant]”, for which the self-aminoacylation in the series on biotinyl-Leu-oxazolone came to 0.878; in the series on biotinyl-Trp-oxazolone it was 1.25; in the series on biotinyl-Phe-oxazolone, 1.4; in the series on biotinyl-Met-oxazolone, 1.38; in the series with biotinyl-Val-oxazolone, 1.11; in the series on biotinyl-Ile-oxazolone, 1.11.

As for “AUUACCCUUGUCACCGAGUGA [Fam2.1 aminoacylation ribozyme variant]”, the self-aminoacylation is 9.28 in the series on biotinyl-Leu-oxazolone; 11.1 in the series with biotinyl-Trp-oxazolone; 50.2 with biotinyl-Phe-oxazolone; 8.49 in the series with biotinyl-Met-oxazolone; 4.31 in the series on biotinyl-Val-oxazolone; 4.01 in the series on biotinyl-Ile-oxazolone.

“AUUCACCCAGGUCAUCGGCUG [Fam2.2 aminoacylation ribozyme variant]”: the self-aminoacylation in the series with biotinyl-Leu-oxazolone is 1.85; in the series with biotinyl-Trp-oxazolone, 1.41; with biotinyl-Phe-oxazolone, 6.8; in the series on biotinyl-Met-oxazolone it was 1.62; in the series on biotinyl-Val-oxazolone, 2; in the series with biotinyl-Ile-oxazolone it was 1.99.

As to “CCACACUUUGAGCAAUCGGUC [Fam1B.1 aminoacylation ribozyme variant]”, the self-aminoacylation is 0.96 in the series with biotinyl-Leu-oxazolone; 0.721 with biotinyl-Trp-oxazolone; 0.83 in the series with biotinyl-Phe-oxazolone; 0.858 in the series on biotinyl-Met-oxazolone; 1.06 in the series with biotinyl-Val-oxazolone; 1.05 in the series on biotinyl-Ile-oxazolone.

Regarding “CUACUUUAAACGAUCGGUCUG [Fam1A.1 aminoacylation ribozyme variant]”, the self-aminoacylation in the series on biotinyl-Leu-oxazolone was 0.863; in the series with biotinyl-Trp-oxazolone it was 0.759; with biotinyl-Phe-oxazolone, 0.589; with biotinyl-Met-oxazolone it was 0.885; with biotinyl-Val-oxazolone, 0.844; in the series on biotinyl-Ile-oxazolone, 0.808.

Regarding “CUACACUUCAAGCAAUCGGCC [Fam1B.1 aminoacylation ribozyme variant]”, the self-aminoacylation in the series on biotinyl-Leu-oxazolone came to 2.41; in the series on biotinyl-Trp-oxazolone, 5.03; with biotinyl-Phe-oxazolone, 6.22; with biotinyl-Met-oxazolone, 1.69; in the series with biotinyl-Val-oxazolone, 1.75; in the series with biotinyl-Ile-oxazolone, 1.82.

With “AUUAUCCUGGUCAUCGAGUAA [Fam2.1 aminoacylation ribozyme variant]”, the self-aminoacylation with biotinyl-Leu-oxazolone stood at 1.85; in the series with biotinyl-Trp-oxazolone it was 1.08; in the series on biotinyl-Phe-oxazolone, 2.69; with biotinyl-Met-oxazolone it was 2.03; in the series with biotinyl-Val-oxazolone it was 1.39; in the series on biotinyl-Ile-oxazolone it was 1.43.

With “AUUACCCUGGUGAUUGAGUGA [Fam2.1 aminoacylation ribozyme variant]”, the self-aminoacylation in the series on biotinyl-Leu-oxazolone is 7.64; with biotinyl-Trp-oxazolone, 9.23; with biotinyl-Phe-oxazolone, 57.1; with biotinyl-Met-oxazolone it was 7.66; with biotinyl-Val-oxazolone, 3.55; in the series with biotinyl-Ile-oxazolone, 3.55.

Regarding “AUUACCCUGAUCAUCGAAUGA [Fam2.1 aminoacylation ribozyme variant]”, the self-aminoacylation was 0.898 with biotinyl-Leu-oxazolone; 0.561 in the series on biotinyl-Trp-oxazolone; 0.602 in the series on biotinyl-Phe-oxazolone; 0.93 in the series with biotinyl-Met-oxazolone; 0.871 in the series with biotinyl-Val-oxazolone; 0.936 in the series with biotinyl-Ile-oxazolone.

Turning to “AUUACCCUAGUCAUCGAGUGA [Fam2.1 aminoacylation ribozyme variant]”, the self-aminoacylation with biotinyl-Leu-oxazolone amounted to 5.12; in the series on biotinyl-Trp-oxazolone it was 6.3; with biotinyl-Phe-oxazolone, 18; with biotinyl-Met-oxazolone, 4.92; in the series with biotinyl-Val-oxazolone, 3.05; with biotinyl-Ile-oxazolone, 2.89.

“CUACUACAAACAAACGGUCUG [Fam1A.1 aminoacylation ribozyme variant]”: the self-aminoacylation is 0.648 with biotinyl-Leu-oxazolone; 0.575 with biotinyl-Trp-oxazolone; 0.827 with biotinyl-Phe-oxazolone; 0.673 in the series on biotinyl-Met-oxazolone; 0.857 in the series with biotinyl-Val-oxazolone; 0.874 in the series on biotinyl-Ile-oxazolone.

On to “AUUACCCUAGUCAUUGAGUGA [Fam2.1 aminoacylation ribozyme variant]”, for which the self-aminoacylation with biotinyl-Leu-oxazolone amounted to 6.93; in the series with biotinyl-Trp-oxazolone, 9.31; with biotinyl-Phe-oxazolone, 25.9; with biotinyl-Met-oxazolone, 6.69; with biotinyl-Val-oxazolone, 3.86; in the series with biotinyl-Ile-oxazolone, 3.69.

Regarding “UUUCACCUAGGUCAUCGAGUG [Fam2.2 aminoacylation ribozyme variant]”, the self-aminoacylation in the series on biotinyl-Leu-oxazolone turned out to be 9.37; in the series on biotinyl-Trp-oxazolone, 4.82; in the series with biotinyl-Phe-oxazolone, 16.4; with biotinyl-Met-oxazolone, 7.16; in the series on biotinyl-Val-oxazolone, 4.45; in the series with biotinyl-Ile-oxazolone, 5.72.

Regarding “AGACACCUAGGUCAUCGGGUG [Fam2.2 aminoacylation ribozyme variant]”, the self-aminoacylation in the series on biotinyl-Leu-oxazolone was 3.29; in the series on biotinyl-Trp-oxazolone, 4.31; in the series with biotinyl-Phe-oxazolone, 20.6; in the series with biotinyl-Met-oxazolone it was 3.07; in the series with biotinyl-Val-oxazolone it was 2.32; in the series on biotinyl-Ile-oxazolone it was 3.01.

Regarding “CCACUUCAGACAAUCGGUCUG [Fam1A.1 aminoacylation ribozyme variant]”, the self-aminoacylation came out at 1.33 with biotinyl-Leu-oxazolone; 1.71 with biotinyl-Trp-oxazolone; 1.67 in the series with biotinyl-Phe-oxazolone; 1.66 in the series with biotinyl-Met-oxazolone; 1.65 in the series with biotinyl-Val-oxazolone; 1.62 in the series on biotinyl-Ile-oxazolone.

Regarding “AAGUUUGCUAAUAGCGGCAAG [Fam3.1 aminoacylation ribozyme variant]”, the self-aminoacylation was found to be 0.575 in the series on biotinyl-Leu-oxazolone; 0.924 with biotinyl-Trp-oxazolone; 0.964 in the series with biotinyl-Phe-oxazolone; 0.508 in the series with biotinyl-Met-oxazolone; 0.646 with biotinyl-Val-oxazolone; 0.668 in the series with biotinyl-Ile-oxazolone.

Turning to “ACUCACCUAGGUCAUCGCGUG [Fam2.2 aminoacylation ribozyme variant]”, the self-aminoacylation with biotinyl-Leu-oxazolone turned out to be 10.6; with biotinyl-Trp-oxazolone it was 9.66; with biotinyl-Phe-oxazolone, 70; with biotinyl-Met-oxazolone it was 7.39; with biotinyl-Val-oxazolone, 6.93; with biotinyl-Ile-oxazolone, 5.51.

With “AUUACCCUCGUCAUCGUGUGA [Fam2.1 aminoacylation ribozyme variant]”, the self-aminoacylation in the series on biotinyl-Leu-oxazolone was determined as 1.47; with biotinyl-Trp-oxazolone, 1.65; in the series with biotinyl-Phe-oxazolone, 1.22; in the series on biotinyl-Met-oxazolone it was 1.47; in the series with biotinyl-Val-oxazolone it was 1.22; in the series on biotinyl-Ile-oxazolone, 1.15.

For “AUUCACCUAGGUCAUCGCGUG [Fam2.2 aminoacylation ribozyme variant]”, the self-aminoacylation with biotinyl-Leu-oxazolone was 17.4; in the series on biotinyl-Trp-oxazolone, 11.5; in the series on biotinyl-Phe-oxazolone, 100; with biotinyl-Met-oxazolone, 13; with biotinyl-Val-oxazolone, 7.35; in the series on biotinyl-Ile-oxazolone it was 7.1.

As for “AAGGUUGCUAAUAGUCGCAAU [Fam3.1 aminoacylation ribozyme variant]”, the self-aminoacylation in the series on biotinyl-Leu-oxazolone was determined as 1.68; in the series on biotinyl-Trp-oxazolone, 1.61; with biotinyl-Phe-oxazolone it was 3.18; with biotinyl-Met-oxazolone it was 1.81; in the series on biotinyl-Val-oxazolone it was 1.46; in the series on biotinyl-Ile-oxazolone it was 1.99.

Turning to “AUUCACUUAGGACAUCGGGUG [Fam2.2 aminoacylation ribozyme variant]”, the self-aminoacylation amounted to 3.44 in the series with biotinyl-Leu-oxazolone; 2.78 in the series with biotinyl-Trp-oxazolone; 14.1 with biotinyl-Phe-oxazolone; 3.21 in the series on biotinyl-Met-oxazolone; 2.33 with biotinyl-Val-oxazolone; 2.33 in the series with biotinyl-Ile-oxazolone.

Take “UUUCACCUAGGUCAUCUGGUG [Fam2.2 aminoacylation ribozyme variant]”: the self-aminoacylation with biotinyl-Leu-oxazolone was determined as 2.22; in the series with biotinyl-Trp-oxazolone, 2.5; in the series on biotinyl-Phe-oxazolone, 9.3; with biotinyl-Met-oxazolone, 1.88; in the series on biotinyl-Val-oxazolone, 1.86; in the series with biotinyl-Ile-oxazolone it was 1.76.

For “AUUCACCUAUAUCAUCGGGUG [Fam2.2 aminoacylation ribozyme variant]”, the self-aminoacylation was determined as 6.53 in the series with biotinyl-Leu-oxazolone; 4.4 in the series with biotinyl-Trp-oxazolone; 32.7 in the series on biotinyl-Phe-oxazolone; 4.73 in the series on biotinyl-Met-oxazolone; 2.56 in the series with biotinyl-Val-oxazolone; 2.84 in the series on biotinyl-Ile-oxazolone.

Take “CUACUUCAAACAAUCGUUCCG [Fam1A.1 aminoacylation ribozyme variant]”: the self-aminoacylation in the series on biotinyl-Leu-oxazolone was 0.786; with biotinyl-Trp-oxazolone it was 0.587; in the series on biotinyl-Phe-oxazolone it was 0.562; with biotinyl-Met-oxazolone, 0.516; in the series with biotinyl-Val-oxazolone, 0.66; with biotinyl-Ile-oxazolone, 0.724.

(Values after the supplement of paper PMC9233669.)
